Assay results reported in US20020115613A1, “Treatment of prostate cancer” (priority 2001, published 2002).

B1: Tumor necrosis factor α—Related Apoptosis Inducing Ligand (protein, UniProt P50591 1-281, looked up)
Tumor necrosis factor ligand …: MAMMEVQGGPSLGQTCVLIVIFTVLLQSLCVAVTYVYFTNELKQMQDKYSKSGIACFLKEDDSYWDPNDEESMNSPCWQVKWQLRQLVRKMILRTSEETISTVQEKQQNISPLVRERGPQRVAAHITGTRGRSNTLSSPNSKNEKALGRKINSWESSRSGHSFLSNLHLRNGELVIHEKGFYYIYSQTYFRFQEEIKENTKNDKQMVQYIYKYTSYPDPILLMKSARNSCWSKDAEYGLYSIYQGGIFELKENDRIFVSVTNEHLIDMDHEASFFGAFLVG
notes: 281 amino acid type II transmembrane protein of the tumor necrosis factor α family; purchased from Biomol

Key:
LNCaP cells = assay: Apoptosense assay (M30 ELISA, cleaved cytokeratin 18); assay type: cell-based
Procedure: LNCaP were obtained from American Type Culture Collection (Rockville, Md.) and LNCaP C4-2 cells were purchased from Urocor Inc., Oklahoma City, Okla. Cells were grown in RPMI 1640 medium supplemented with 10% (LNCaP) or 5% (LNCaP C4-2) fetal bovine serum (Hyclone, Logan, Utah) and grown in the presence of 5% CO2 at 37° C. Cells were treated with 10 μM Mifepristone (Sigma, St. Louis, Mo.) for three days or with increasing concentrations (from 200 ng/ml to 600 ng/ml) of TRAIL (Biomol Research Laboratories, Inc., Plymouth Meetings, Pa.) for varying time intervals 2, 4, 6, 8, 16, 20 and 24 hours (hr). Thus, for treatment with Mifepristone, cells were treated with Mifepristone for three days and then some cells treated (without washing) with TRAIL for indicated periods. Upon completion of the experiment, cells were harvested, and total proteins, cytosol or mitochondrial fractions were isolated as described below. At least three experiments were conducted with a minimum of four plates per treatment per experiment. Two methods were used to measure induction of apoptosis by drug treatment: the MTT assay and the Apoptosense assay. The MTT assay measures mitochondrial enzyme activity and is indicative of the number of surviving cells. […] Cells were plated in petri dishes and after completion of the treatment, cells were harvested and total protein extracted as described below. […] Color was developed by adding tetramethylbenzidine solution and the optical density of the bound antibody was determined at 450 nm on a Spectra MAX 340 microplate reader (Molecular Devices, Menlo Park, Calif.). Standard solution supplied by the supplier was used for generating standard curves.

PC3Neo cells = assay: Induction of apoptosis / cell survival (FIG. 1E, 6A); assay type: cell-based
Procedure: Prostate cancer cell lines, PC3Neo and PC3AR were provided by Dr. K. Burnstein, University of Miami School of Medicine, Miami, Fla. PC3AR cells are a clonal cell line derived by stable transfection of PC3 with a full-length human AR cDNA (Dai, J. L., et al., Steroids, 61, 531-539, 1996). PC3Neo cells were stably transfected with neomycin vector alone. Cells were grown in RPMI 1640 with 5% FBS (Hyclone, Logan, Utah), 100 units/ml penicillin, 100 μg/ml streptomycin, 0.25 μg/ml fungizone and G418 (350 μg/ml) to select for neomycin-resistant cells. In experiments using antiandrogens, cells were maintained in 5% DCC stripped serum for at least 48 hr before treatment with hydroxyflutamide (Sigma Chemical Co., St. Louis, Mo.). The medium and all the drugs were replaced every two days. Cells were treated with 200 ng/ml, 400 ng/ml or 600 ng/ml of TRAIL (Biomol Research Laboratories, Inc, Plymouth Meeting, Pa.) for 2, 4, 6, 8, 16 and 20 hr. Cells were treated with 5 μM hydroxyflutamide for 5 days before the commencement of treatment with 400 ng/ml TRAIL.
Two methods were used to measure induction of apoptosis by drug treatment: the MTT assay and the Apoptosense assay. The MTT assay measures mitochondrial enzyme activity and is indicative of the number of surviving cells. The Apoptosense assay is an ELISA, which utilizes M30 antibody to recognize the C-terminal domain (amino acids 387-396) of cytokeratin 18 that is exposed in apoptotic cells after cleavage by caspases.
Cells were seeded in 96-well plates (6000 cells/well) and treatment was started 24 hr after seeding the cells. After completion of the treatment, cells were incubated at 37° C. with the MTT reagent for 3 hr and processed according to manufacturers instructions (Promega Corporation, Madison, Wis.). Color development was measured at 490 nm on a Spectra MAX 340 microplate reader (Molecular Devices, Menlo Park, Calif.).
To examine the role of NFκB in altered response to TRAIL, its function was blocked by over expressing mutated IκB protein (Kanegae, Y., et al., Nature 392, 611-614, 1998). […]

Molecule | M30 activity (in words) (LNCaP cells) | apoptotic response at 200 ng/ml (PC3Neo cells; 200 ng/ml TRAIL) | death of cells (apoptosis) (PC3Neo cells; 400 ng/ml TRAIL, by 20 hr, FIG. 1E) [%] | apoptosis at higher dose (PC3Neo cells; 600 ng/ml TRAIL)
CC#C[C@]1(O)CC[C@H]2[C@@H]3CCC4=CC(=O)CCC4=C3[C@@H](c3ccc(N(C)C)cc3)C[C@@]21C [Mifepristone] | lower M30 activity |  |  | 
B1 |  | lower response | ~18 | did not significantly increase apoptosis
